# Measured values as given in patent publication EP0526502B1, “PHENOLIC AMINE DEPIGMENTING AND ANTIMELANOMA AGENTS” (The Governors of the University of Alberta, priority 1990, dated 1991).
# B1: plasma MAO (Bos taurus) (protein)
# chain: REEGGVGSEEGVGKQCHPSLPPRCPSRSPSDQPWTHPDQSQLFADLSREELTTVMSFLTQQLGPDLVDAAQARPSDNCVFSVELQLPPKAAALAHLDRGSPPPAREALAIVFFGGQPQPNVTELVVGPLPQPSYMRDVTVERHGGPLPYYRRPVLLREYLDIDQMIFNRELPQAAGVLHHCCSYKQGGQKLLTMNSAPRGVQSGDRSTWFGIYYNITKGGPYLHPVGLELLVDHKALDPADWTVQKVFFQGRYYENLAQLEEQFEAGQVNVVVIPDDGTGGFWSLKSQVPPGPTPPLQFHPQGPRFSVQGNRVASSLWTFSFGLGAFSGPRVFDVRFQGERLAYEISLQEAGAVYGGNTPAAMLTRYMDSGFGMGYFATPLIRGVDCPYLATYMDWHFVVESQTPKTLHDAFCVFEQNKGLPLRRHHSDFLSHYFGGVAQTVLVFRSVSTMLNYDYVWDMVFYPNGAIEVKLHATGYISSAFLFGAARRYGNQVGEHTLGPVHTHSAHYKVDLDVGGLENWVWAEDMAFVPTAIPWSPEHQIQRLQVTRKQLETEEQAAFPLGGASPRYLYLASKQSNKWGHPRGYRIQTVSFAGGPMPQNSPMERAFSWGRYQLAITQRKETEPSSSSVFNQNDPWTPTVDFSDFINNETIAGKDLVAWVTAGFLHIPHAEDIPNTVTVGNGVGFFLRPYNFFDQEPSMDSADSIYFREGQDAGSCEINPLACLPQAATCAPDLPVFSHGGYPEY
# notes: purchased Sigma Chemical Co. (St. Louis, MO, USA)
# Substrate: NCCSc1ccc(O)cc1
# Assay: Enzyme kinetics with monoamineoxidase (substrate disappearance by HPLC, Lineweaver-Burk)
# Assay type: biochemical
# Conditions: other: plasma monoamine oxidase, 0.005 unit/ml, pH 7.4, 37°C
# Procedure: Mushroom tyrosinase (400 units/mg) and plasma MAO (1000 units/gm) were obtained from Sigma Chemical Co. (St. Louis, MO, USA). A reaction mixture consisted of a substrate of 7 to 8 different concentrations (40 to 500 »M for mushroom tyrosinase and 20 to 200 »M for MAO) and of either mushroom tyrosinase (2.5 »g) or MAO (10 »g) in 1.0 mL of 0.05 M sodium phosphate buffer, pH 6.8 and 7.4 respectively. The reactions were carried out at 37°C in a shaking water bath, and stopped by taking 100 »L of the reaction mixture and adding it to 900 »L of 0.4 M HCLO₄. The disappearance of substrate was followed using HPLC (high pressure liquid chromatography) Km and Vmax values were calculated from the Lineweaver-Burk plots.
protein,measurement,value
B1,Km,52.6 µM
